From paper PMC8934654, “Structural characterization of the ANTAR antiterminator domain bound to RNA”

B1: EutP RNA, 3' biotin (structured_RNA)
RNA: AGAAUCAGAAACACAAUGGCGUGUUUUAACAAAUCGGCAAAGGAGCCCAAG

Key:
EutV [1] = molecular target: T1, EutV (Enterococcus faecalis, UniProt A0A1Q1FU69 1-190); assay: SPR; settings: SPR: 10 mM HEPES pH 7, 150 mM NaCl, 0.05% Tween-20, 2.5 mM MgCl2, 4 C; EMSA: 25 mM HEPES pH 7.5, 150 mM NaCl, 10 mM MgCl2, 4 C, 25 nM RNA
T1 sequence: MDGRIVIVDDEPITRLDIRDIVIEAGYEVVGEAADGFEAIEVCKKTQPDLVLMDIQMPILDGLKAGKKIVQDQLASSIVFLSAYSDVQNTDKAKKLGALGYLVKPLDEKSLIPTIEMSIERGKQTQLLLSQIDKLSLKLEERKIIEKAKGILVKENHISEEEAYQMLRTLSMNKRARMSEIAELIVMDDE

EutV [2] = molecular target: T1, EutV; assay: SPR; CAPture chip, 2.5 mM MgCl2, n=8; SPR: 10 mM HEPES pH 7, 150 mM NaCl, 0.05% Tween-20, 2.5 mM MgCl2, 4 C; EMSA: 25 mM HEPES pH 7.5, 150 mM NaCl, 10 mM MgCl2, 4 C, 25 nM RNA; settings: protein: recombinant; tags: none (His-tag cleaved by TEV); chain copies: 2; label: 3' biotin-TEG; two hairpins with hexaloops P1 and P2
EutV N173A/R175A/R177A = EutV N173A/R175A/R177A (Enterococcus faecalis, UniProt A0A1Q1FU69 1-190, N173A;R175A;R177A); assay: SPR; 2.5 mM MgCl2; SPR: 10 mM HEPES pH 7, 150 mM NaCl, 0.05% Tween-20, 2.5 mM MgCl2, 4 C; EMSA: 25 mM HEPES pH 7.5, 150 mM NaCl, 10 mM MgCl2, 4 C, 25 nM RNA; settings: protein: recombinant; chain copies: 2; label: 3' biotin-TEG; two hairpins with hexaloops P1 and P2
EutV M172A = EutV M172A (Enterococcus faecalis, UniProt A0A1Q1FU69 1-190, M172A); assay: as above; settings: protein: recombinant; chain copies: 2; label: 3' biotin-TEG; two hairpins with hexaloops P1 and P2
EutV K143A/K147A = EutV K143A/K147A (Enterococcus faecalis, UniProt A0A1Q1FU69 1-190, K143A;K147A); assay: as above; settings: protein: recombinant; chain copies: 2; label: 3' biotin-TEG; two hairpins with hexaloops P1 and P2
EutV R142A = EutV R142A (Enterococcus faecalis, UniProt A0A1Q1FU69 1-190, R142A); assay: as above; settings: protein: recombinant; chain copies: 2; label: 3' biotin-TEG; two hairpins with hexaloops P1 and P2
EutV Y164A = EutV Y164A (Enterococcus faecalis, UniProt A0A1Q1FU69 1-190, Y164A); assay: as above; settings: protein: recombinant; chain copies: 2; label: 3' biotin-TEG; two hairpins with hexaloops P1 and P2
EutV E160A = EutV E160A (Enterococcus faecalis, UniProt A0A1Q1FU69 1-190, E160A); assay: as above; settings: protein: recombinant; chain copies: 2; label: 3' biotin-TEG; two hairpins with hexaloops P1 and P2
EutV [3] = molecular target: T1, EutV; assay: SPR; unphosphorylated, CM5 streptavidin chip, n=6; SPR: 10 mM HEPES pH 7, 150 mM NaCl, 0.05% Tween-20, 2.5 mM MgCl2, 4 C; EMSA: 25 mM HEPES pH 7.5, 150 mM NaCl, 10 mM MgCl2, 4 C, 25 nM RNA; settings: protein: recombinant; tags: none (His-tag cleaved by TEV); chain copies: 2; label: 3' biotin-TEG; two hairpins with hexaloops P1 and P2

Row | Molecule | Kd (EutV [1]) [µM] | Kd (EutV [2]) [µM] | binding result (EutV N173A/R175A/R177A) | binding result (EutV M172A) | binding signal (EutV K143A/K147A) | binding signal (EutV R142A) | binding signal (EutV Y164A) | binding signal (EutV E160A) | Kd (EutV [3]) [nM]
1 | P1 hairpin | 6 |  |  |  |  |  |  |  | 
2 | P2 hairpin | 3.1 |  |  |  |  |  |  |  | 
3 | B1 |  | 3.8 ± 2.1 | no binding | no binding | 5 fold reduction in affinity vs WT | 8 fold reduction in affinity vs WT | 55 fold reduction in affinity vs WT | 60 fold reduction in affinity vs WT | 2200 ± 200
